# Measurements taken from paper PMC3936608 (Pain, 2013).
# B1: Rat artemin (113 amino acids) (ligand, UniProt Q6AYE8 112-224, looked up)
# chain: AGTRSSRARATDARGCRLRSQLVPVSALGLGHSSDELIRFRFCSGSCRRARSPHDLSLASLLDAGALRSPPGSRPISQPCCRPTRYEAVSFMDVNSTWRTVDHLSATACGCLG
# Target: the molecule itself
# Test: SDS-PAGE + SEC
protein,measurement,value
B1,stoichiometry N,2
